# Laboratory results taken from the supplement of paper PMC11908140.
# B1: library; numbered along this chain (parent)
# chain: MRKPRAAVGSGHRKQAASQEGRQKHAKNNSQAKPSACDGLARQPEEVVLQASVSSYHLFRDVAEVTAFRGSLLSWYDQEKRDLPWRRRAEDEMDLDRRAYAVWVSEVMLQQTQVATVINYYTGWMQKWPTLQDLASASLEEVNQLWAGLGYYSRGRRLQEGARKVVEELGGHMPRTAETLQQLLPGVGRYTAGAIASIAFGQATGVVDGNVARVLCRVRAIGADPSSTLVSQQLWGLAQQLVDPARPGDFNQAAMELGATVCTPQRPLCSQCPVESLCRARQRVEQEQLLASGSLSGSPDVEECAPNTGQCHLCLPPSEPWDQTLGVVNFPRKASRKPPREESSATCVLEQPGALGAQILLVQRPNSGLLAGLWEFPSVTWEPSEQLQRKALLQELQRWAGPLPATHLRHLGEVVHTFSHIKLTYQVYGLALEGQTPVTTVPPGARWLTQEEFHTAAVSTAMKKVFRVYQGQQPGTCMGSKRSQVSSPCSRKKPRMGQQVLDNFFRSHISTDAHSLNSAAQ
# Variants of: B1
# Assay: 8OG:A repair function score (normalized; synonymous = 0, nonsense = -1) (normalized log-likelihood score); higher = more repair activity (WT-like)
# Conditions: with 8OG:A DNA repair reporter (GFP) in HEK-293 MUTYH KO cells
# Outline: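 Lentiviral MUTYH cDNA NNN codon-scan libraries were expressed in MUTYH knockout HEK-293 cells with 10 pg/ml doxycycline, and the cells received an 8OG:A GFP repair reporter together with mCherry. At 72 h, viable mCherry+ cells went into GFP+ (repair) or GFP− bins, three replicates per tile, before tile amplicons were sequenced. A repair function score was then built from per-tile Rosace fitness scores, anchored on the synonymous and nonsense distributions. Synonymous medians sat at 0 and nonsense at -1, and variants under 300 counts per million at the start were left out.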
# 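Note: cells sorted at 72 h after reporter transfection.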
row,Variant,8OG:A repair function score
1,MRKPRAAVGSGHRKQAASQEGRQKHAKNNSQAKPSACDGLARQPEEVVLQASVSSYHLFRDVAEVTAFRGSLLSWYDQEKRDLPWRRRAEDEMDLDRRAYAVWVSEVMLQQTQVATVINYYTGWMQKWPTLQDLASASLEEVNQLWAGLGYYSRGRRLQEGARKVVEELGGHMPRTAETLQQLLPGVGRYTAGAIASIAFGQATGVVDGNVAFVLCRVRAIGADPSSTLVSQQLWGLAQQLVDPARPGDFNQAAMELGATVCTPQRPLCSQCPVESLCRARQRVEQEQLLASGSLSGSPDVEECAPNTGQCHLCLPPSEPWDQTLGVVNFPRKASRKPPREESSATCVLEQPGALGAQILLVQRPNSGLLAGLWEFPSVTWEPSEQLQRKALLQELQRWAGPLPATHLRHLGEVVHTFSHIKLTYQVYGLALEGQTPVTTVPPGARWLTQEEFHTAAVSTAMKKVFRVYQGQQPGTCMGSKRSQVSSPCSRKKPRMGQQVLDNFFRSHISTDAHSLNSAAQ [R213F],-1.01
2,MRKPRAAVGSGHRKQAASQEGRQKHAKNNSQAKPSACDGLARQPEEVVLQASVSSYHLFRDVAEVTAFRGSLLSWYDQEKRDLPWRRRAEDEMDLDRRAYAVWVSEVMLQQTQVATVINYYTGWMQKWPTLQDLASASLEEVNQLWAGLGYYSRGRRLQEGARKVVEELGGHMPRTAETLQQLLPGVGRYTAGAIASIAFGQATGVVDGNVAKVLCRVRAIGADPSSTLVSQQLWGLAQQLVDPARPGDFNQAAMELGATVCTPQRPLCSQCPVESLCRARQRVEQEQLLASGSLSGSPDVEECAPNTGQCHLCLPPSEPWDQTLGVVNFPRKASRKPPREESSATCVLEQPGALGAQILLVQRPNSGLLAGLWEFPSVTWEPSEQLQRKALLQELQRWAGPLPATHLRHLGEVVHTFSHIKLTYQVYGLALEGQTPVTTVPPGARWLTQEEFHTAAVSTAMKKVFRVYQGQQPGTCMGSKRSQVSSPCSRKKPRMGQQVLDNFFRSHISTDAHSLNSAAQ [R213K],-1
3,MRKPRAAVGSGHRKQAASQEGRQKHAKNNSQAKPSACDGLARQPEEVVLQASVSSYHLFRDVAEVTAFRGSLLSWYDQEKRDLPWRRRAEDEMDLDRRAYAVWVSEVMLQQTQVATVINYYTGWMQKWPTLQDLASASLEEVNQLWAGLGYYSRGRRLQEGARKVVEELGGHMPRTAETLQQLLPGVGRYTAGAIASIAFGQATGVVDGNVAAVLCRVRAIGADPSSTLVSQQLWGLAQQLVDPARPGDFNQAAMELGATVCTPQRPLCSQCPVESLCRARQRVEQEQLLASGSLSGSPDVEECAPNTGQCHLCLPPSEPWDQTLGVVNFPRKASRKPPREESSATCVLEQPGALGAQILLVQRPNSGLLAGLWEFPSVTWEPSEQLQRKALLQELQRWAGPLPATHLRHLGEVVHTFSHIKLTYQVYGLALEGQTPVTTVPPGARWLTQEEFHTAAVSTAMKKVFRVYQGQQPGTCMGSKRSQVSSPCSRKKPRMGQQVLDNFFRSHISTDAHSLNSAAQ [R213A],-1.02
4,MRKPRAAVGSGHRKQAASQEGRQKHAKNNSQAKPSACDGLARQPEEVVLQASVSSYHLFRDVAEVTAFRGSLLSWYDQEKRDLPWRRRAEDEMDLDRRAYAVWVSEVMLQQTQVATVINYYTGWMQKWPTLQDLASASLEEVNQLWAGLGYYSRGRRLQEGARKVVEELGGHMPRTAETLQQLLPGVGRYTAGAIASIAFGQATGVVDGNVAEVLCRVRAIGADPSSTLVSQQLWGLAQQLVDPARPGDFNQAAMELGATVCTPQRPLCSQCPVESLCRARQRVEQEQLLASGSLSGSPDVEECAPNTGQCHLCLPPSEPWDQTLGVVNFPRKASRKPPREESSATCVLEQPGALGAQILLVQRPNSGLLAGLWEFPSVTWEPSEQLQRKALLQELQRWAGPLPATHLRHLGEVVHTFSHIKLTYQVYGLALEGQTPVTTVPPGARWLTQEEFHTAAVSTAMKKVFRVYQGQQPGTCMGSKRSQVSSPCSRKKPRMGQQVLDNFFRSHISTDAHSLNSAAQ [R213E],-1.03
5,MRKPRAAVGSGHRKQAASQEGRQKHAKNNSQAKPSACDGLARQPEEVVLQASVSSYHLFRDVAEVTAFRGSLLSWYDQEKRDLPWRRRAEDEMDLDRRAYAVWVSEVMLQQTQVATVINYYTGWMQKWPTLQDLASASLEEVNQLWAGLGYYSRGRRLQEGARKVVEELGGHMPRTAETLQQLLPGVGRYTAGAIASIAFGQATGVVDGNVAGVLCRVRAIGADPSSTLVSQQLWGLAQQLVDPARPGDFNQAAMELGATVCTPQRPLCSQCPVESLCRARQRVEQEQLLASGSLSGSPDVEECAPNTGQCHLCLPPSEPWDQTLGVVNFPRKASRKPPREESSATCVLEQPGALGAQILLVQRPNSGLLAGLWEFPSVTWEPSEQLQRKALLQELQRWAGPLPATHLRHLGEVVHTFSHIKLTYQVYGLALEGQTPVTTVPPGARWLTQEEFHTAAVSTAMKKVFRVYQGQQPGTCMGSKRSQVSSPCSRKKPRMGQQVLDNFFRSHISTDAHSLNSAAQ [R213G],-1.01
6,MRKPRAAVGSGHRKQAASQEGRQKHAKNNSQAKPSACDGLARQPEEVVLQASVSSYHLFRDVAEVTAFRGSLLSWYDQEKRDLPWRRRAEDEMDLDRRAYAVWVSEVMLQQTQVATVINYYTGWMQKWPTLQDLASASLEEVNQLWAGLGYYSRGRRLQEGARKVVEELGGHMPRTAETLQQLLPGVGRYTAGAIASIAFGQATGVVDGNVAIVLCRVRAIGADPSSTLVSQQLWGLAQQLVDPARPGDFNQAAMELGATVCTPQRPLCSQCPVESLCRARQRVEQEQLLASGSLSGSPDVEECAPNTGQCHLCLPPSEPWDQTLGVVNFPRKASRKPPREESSATCVLEQPGALGAQILLVQRPNSGLLAGLWEFPSVTWEPSEQLQRKALLQELQRWAGPLPATHLRHLGEVVHTFSHIKLTYQVYGLALEGQTPVTTVPPGARWLTQEEFHTAAVSTAMKKVFRVYQGQQPGTCMGSKRSQVSSPCSRKKPRMGQQVLDNFFRSHISTDAHSLNSAAQ [R213I],-0.997
